In the nanobody polyreactivity screen of Harvey et al. (2022):

Test: yeast display, Sf9 membrane polyspecificity reagent, FACS + sequencing; frameworks hold sequencing errors
In short: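 Sorting gates, low and high (top ~1%), were placed on anti-HA fluorescence to track expression and on streptavidin fluorescence to track reagent binding. A clone's polyreactivity label is taken from the gate it came out of. The reagent was 10% biotinylated, detergent-solubilized Sf9 membrane, applied for 1 hour at 4 °C to galactose-induced yeast display cells.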

Sequence | polyreactivity (PSR sort gate)
QVQLVESGGGLVQAGGSLRLSCAASGRTFYYYAMGWYRQAPGKERELVAAISWRGGSTYYADSVKGRFTISRDNAKNTVYLQMNSLKPEDTAVYYCAVYTTYSRYRGYDYWGQGTQVTVSS | high polyreactivity
QVQLVESGGGLVQAGGSLRLSCAASGFTFRYYAMGWYRQAPGKERELVASISGTGGRTYADSVKGRFTISRDNAKNTVYLQMNSLKPEDTAVYYCAAWSYAYYYRLRYVSHDYWGQGTQVTVSS | high polyreactivity
QVQLVESGGGLVQAGGSLRLSCADSGSIFDDYTMGWYRQAPGKERELVAVITTGGTTYYADSVKGRFTISRDNAKNTVYLQMNSLKPEDTAVYYCAAKEANRYRRYYWGQGTQVTVSS | high polyreactivity
QVQLEESGGGLVQAGGSLSVSCAASGSICRNYAMGWYLQAPGKERELVAAISVRGGSTYYADSVKGRFTISRDNAKNTVYLQMHSLKPEDTAGYYCNAVHHDTISDYWGQGTQVTVSS | high polyreactivity
QVQLVESGGGLVQAGGSLRLSCAASGSIFRIYAMGWSRQAPGKERELVAAIDSSGGSTYYADSVKGRFTISRDNAKNTVYLQMNSLKPEDTAVYYCAADFGSKSTPYDYWGQGTQVTVSS | low polyreactivity
QVQLVESGGGLVQAGGSLRLSCAASGFTFYRYTMGWYIQAPGKERELVAAISARGVSTYYADSVKGRFTISRDIAKNTVYLQMNSLKPEDTAVYYCYVSRYDSWGQGTQVTVSS | high polyreactivity
QVHHVESGGGLVQAGGSLRLSSAASGSIISYYAMGWSRHAPGKERELVPAINRSGGSTYYADSVKGRFTITRDNAKNTVYLQMNSLKPDDTAVYYCNAVRLYYGAGGQFQYHYWGQGTHVTVSS | high polyreactivity
QVQLVESGAGLFQAGGSLRLSCAASGFTFNYYAMGGYIHAPGKERELVAAISRRGGSTYYADSVKGRFTISRDNAKNNVYLQMKSLKPEDTAVYYCNAASLKFTSPVRFGYWGQGTQVTVSS | high polyreactivity
QVQLVESGGGLVQAGGSLRLSCAASGSTFIRYAMGWYRQAPGKERELVAAITSGGRTNYADSVKGRFTISRDNAKNTVYLQMNSLKPEDTAVYYCAKLRWVYGRQTLMDYWGQGTQVTVSS | high polyreactivity
QVQLVESGGGLLQAGRSLRLSCAASGSIIWLYAMGWYRQAPGKERELVAAISWTGTSTNYADSVKGRFTISRDYAKNTVYLQMNSLKPEDTAVYYCAKRWYNQKLFGYEDEYDYWGQGTQVTVSS | low polyreactivity
QVQLVESGGGLVQAGGSLRLICAASGSTLNSYVMGWSRQAPGKERDMVATIRSGSSTNYADSVKGRFTISRDNAKNTVYFQMNSLIPEDTAVYSCAADAYSLCYDSWGQGTQVTVSS | low polyreactivity
QVQLVESGGGLVQAGGSLRLSCAASGFTFDNYVMGWYSQAPGKERELVAAISKSGTSTYYADSVKGRFTISRDNAKNTVYLQMNSLKPEDTAVYYCAAALPGYGDYYYWGQGTQVTVSS | high polyreactivity
QVQLVESGGGLVQAGGSLRLSCAASGLIFLWYVMGWYRQAPGKEREFVAAISWNGGGTYYADSVKGRFTISRDNAKNTVYLQMNSLKPDDTAVYYCAAQTYSNDYWGQGTQVTVSS | low polyreactivity
QVQLVESGGGLVQAGGSLRLSCAASGSTFVDNAMGWYRQAPGKERELVAAITNSGSTYYADSVKGRFTISRDNAKNTVYLQMNSHKPEDTAVYYCAARSRVYWARSGYWGQGTQVTVSS | low polyreactivity
QVQLVESGGGLVQAGGSLRLSCAASGSTLDGNTMGWYRQAPGKERELVAAISRSGTSTYYADSVKGRFTISRDNAKNTVYLQMNSLKPEDTAVYYCNAEASDLYYVYLEYDYWGQGTQVTVSS | low polyreactivity
QVQLVESGGGLVQAGGSLRLSSAASGRTFYLYAMGWYRQAPGKAMELVAAISRSGGITYYADSVKGRFTISRDNAKNTVYLQMNSLKPEDTGVYYCAASRAGGYYGKGYSWGQGSQVTVSS | high polyreactivity
QVQLVESGGGLVQAGGSLRLSCAASGFTFTRYAMGWSRQAPGKETELVAAISSGSRTYYADSVKGRFTISRDNAKNTVYLQMNSLKPEDTAVYYCAAPVYTYYGHYDSWGQGTQVTVSS | high polyreactivity
QVQLVESGGGLVQAGGSLRLSCAASGIIIGGYAMGWYRQAPGKERELVADITWSGGSTTYADSVKGRFTISRDNAKNTVYLQMNSLKPEDTAVYYCAAEDYYIYREPYDYWGQGTQVTVSS | low polyreactivity
QVQLVESGGGLVQAGGSLRLSCAASGSTFNYYTMGWYRQEPGKETELVAAISGRVSITYYADSVKGRFTISRDNAKNTVYLQMISLKPEDTAVYYCAAGPGYVRYPRSGVWYVTLYDYWGQGSQVTVSS | high polyreactivity
QVQLVESGGGLVQAGGSLRLSCAASGSTFVTNGMGWYRQEPGKERELVAAISGNVGSTYYADSVKGRFTISRDNEKNTVYLQMNSLKPEDTAVYYCAARQYRPSDYDYWGQGTQVTVSS | low polyreactivity
QVQLVESGGGLVQAGGSLRLSCAAYGITFGANAMGWYRQAPGKERELVADITWSGGDTYYADSVKGRFTISRDNAKYTVYLQMTSLIPEDTAVYYCNALQPGLGSPLGEYDFWGQGTQVTVSS | low polyreactivity
QVQLVESGGGLVQAGGSLRLSCAASGSTFGSYAMGWYRHAPGKERELVAAINGGSSTNYADSVKGRFTISRDNAKNTVYLQMNSLKPEDTAVYYCNATETHRLYDSWGQGTQVTVSS | low polyreactivity

Sequence | polyreactivity (PSR sort gate)
QVQLVESGGGLVQAGGSLRLSCAASGFIFWDYAMGCYRQAPGKERELVAAISDSGGDTYYADSVKGRFTLSRDNAKNTVYLQMNSLKPEDPAVYYRAADVELWVFRGQQYDYWGQGTQETVSS | low polyreactivity
QVQLVESGGGLVQAGGSLRLSCAASGGTFDWNPMGWYRQAPGKERELVASITSGGRTNYADSVKGRFTISRDNAKNTVYLQMNSLKPEDTAVSYCAKYRRSAYPWQTWVGQKFDYWGQGTHVTVSS | low polyreactivity
QVQLVESGGGLVQAGGSLRLSCAASGFIVYTYAMGWYRPAPGKERELVAAISIGGRTNYADSVKGRFTISRDNAKNTVSLQMNSLKPEDTARYYCAARGYKRIGYWGQGTLVTVSS | high polyreactivity
QVQLVDSGGGLVQAGGSLRLSCAASGSTFVYYAMGWYRQAPGKERELVAAISSGGRTYYADSVKGRFTISRDNAKNTVYFQMNSLKPEDTAVYYCATYPRYSKSPGYDSWGQGTQVTVSS | high polyreactivity
QVQLVESGGGLVQAGGSLRLSCAASGFTFRGYAMGWYRQAPGKERELVAAIRRGVGSTYYADSVKGRFTISRDNAKNTVYLQMTSLKPEDTAVYYCNKDNAVDRLPWFQVTYDYWGQGTQVTVSS | low polyreactivity
QVQLVESGGGLVQAGGSLRLSCAASGLTFRRNTMGWYRQAPGKERELVATITSGGSTNYADSVKGRFTISRDNAKNTVYLQMNSLKPEDTAVYYCAARTTYITTWVYRHTYTYYYWGQGTQVTVSS | high polyreactivity
QVQLVESGGGLVQAGGSLRLSCAASGSIFGIYAMGWYRQAPGKERELVAAISGSGGDTYYADSVKGRFTISRDNAKNTVYLQMNSLKPEDTAVYYCAATTGAAYPFDYWGQGTQVTVSS | low polyreactivity
QVQLVESGGGLVQAGGSLRLSCAASGRTFRFDAMGWYRQAPGKEREFVAAISRSVGSTYYADSVKGRFTISRDNAKTTVYLQMNSLKPEDTAVYYCNGDYRSRYVEYDYWGQGTQVTVSS | high polyreactivity
QVQLVESGGGLDQAGGSLRLSCAASGSIFGSYTMGWYRQAPGKERQLVAVINWSGDRTYYADSVKGRFTISRDNAKNTVYLQMNSLKPEDTAVYYCAARERAGYSRIRYNYWGQGTQGTVSS | high polyreactivity
QVQLVESGGGLVQAGGSLRLSCAASGITFYIYAMGWYRQAPGKEREFVASITWRGGSTYYADSVKGRFTISRDNAKNTVYLQMNSLKPEDTAVYYCNAEYSSSRYWYYDYWGQGTQVTVSS | high polyreactivity
QVHLVESGGGLFQAGGSLPLSCAASGYIFVRYAKGWYRQAPGKEREFVAAISSSGGSTRYADSVKARFTLSRDNAKNTVYLQMNSLKPEDTAVYYGAATRVARHGSPMYYWGQGTQVTVSS | high polyreactivity
QVQLVESGGGLVQAGGSLRLSCAPSGFIFVKYVMGWYRQAPGKERELVATITGSTGGTYYADSVKGRFTISRDNAKNTVYLQMNSLKPEDTAVYYCNKDYYYNPGNVASGYDYWGQGTQVTVSS | low polyreactivity
QFQLVESGVGLVQAGGSLRLSCAASVRINYAYAMGWYRQTPGKERELVAAISTRGGNTYYADSVKGRFTISRDNAMNTVYLQINSLIPEETEVYYCNALSVSRRFGYDSWGQGTQVTVSS | high polyreactivity
QVQLVESGGGLVQAGGSLRVSCAASGSIFKNNPMGWYRQAPGKERELVDANRYSGGRTYYAHSVKGRFTISRDHAKNTVYIQMNSLKPEVTAVYDCAAGSIQYRPTYTGDYWGQGSQVTVSS | high polyreactivity
QVQLVESGGGLVQAGGSLRLSCAASGRTFDDYAMGRYRQAPGKERELVAVITDNGGGTNYADSVKGRFTISRDNAKNTVYLQMNSLKPEDTAVYYCNAASDDFYPGRRTYGRDYWGQGTQVTVSS | low polyreactivity
QVQLVESGGGLVQAGGSLRLSCAASGRIFRRYALGWYRQAPGKERELGAAITRSGGSTYYADSVKGRFTISRDNAKNTVYLQMNSLNPEDTAVYYCYAPSSLGTDYDYWGQGTQVTVSS | high polyreactivity
QVQLVESGGGLVQAGGSLRLSCAASGSTVRYNAMGWYRQARGIERELVAAISYGSSTNYADSVKGRFTISRDNAKNTVFLQMNSLKPEDTAVYYCAAQPGYYDDFYYWGHGTQVTVSS | low polyreactivity
QVQLVESGGGLVQAGGSLRLICAASGSIFKYYAMGLYRQAPGKERDLVAANRWSGGSTYYADSVKGRFTISRDNAKNTVYLQMNRLKPEDTAVYYCAAEYFNQNTRQGYDYWGQGTQVTVSS | low polyreactivity
QVQLVESGGGLVQAGGSIRLSCAASGSTFANYAMGWYRQAPGKERELVAAISWSGSYTYYADSVKGSFTISRDNAKNTVYLQMNSLKPEDTAVYYCAADYDTPTWEYYYWGQGTQVTVSS | low polyreactivity
QVQLVESGGALDQAGGSLRLSCAASGSTFYYYAMGWYRQAPGKERELVAAISTSDGSTYYADSVKGRFTISRDNAKNTVYLQMNSLKPEDTAVYYCAADSHDRFPSYYYWGQGTQVTVSS | low polyreactivity
QVQLVESGGGLVQAGGSLSLSCAASGSIFNPYGKGWYRQAPGKERELVAAITSSGGDTYYADSVKGRFTISRDNAKNTVYLQMNSLKPEDTAVYYCAATGLPGYYAYDYWGHGTQVTVSS | low polyreactivity
